Reference: patent publication US9555076B2, “Neuregulin based methods and compositions for treating cardiovascular diseases” (Zensun (Shanghai) Science & Technology, Co., Ltd., priority 2002, dated 2017)

Columns and labels:
[1] = system: congestive heart failure caused by inferior vena cava constriction in dog; assay: Echocardiography (EF, FS, CO), inferior vena cava constriction (TIVCC) dog; format: in vivo, crossbred dog
Method: […] dosage level of 1, 3 and 10 μg/kg respectively of rhNRG-1 β was diluted with preparation buffer solution (vehicle) to needed concentration, intravenous injection once everyday for consecutive 5 days.
3% pentobarbital sodium (30 mg/kg) was injected into the peripheral vein to anesthetize the dog, then trachea intubated. […] Bred for 1 week, echocardiography performed according to the amount of ascites, when EF reduced by about 20% or dilatation of the left heart by about 20%, stable low cardiac output congestive heart failure animal model was established. Then intravenous injection of the drug was carried out for consecutive 5 days.
• Heart function index determination was carried out under anesthesia of the dog prior to the operation, prior to and 5-day after the drug administration. Major index included: • EF (Ejection Fraction): heart ejection fraction, i.e., ratio of difference between end diastolic volume of the ventricle (EDV) and end systolic volume of ventricle (ESV) and end diastolic volume of ventricle, being general index used for reflecting pumping function of ventricle; especially reflecting the systolic function; • FS: ventricular short axis shortening rate, being index reflecting contraction function of ventricle, • CO: cardiac output, i.e. blood volume ejected by the heart per minute. 6.3.3.2 Hemodynamic Index Determination

[2] = system: heart failure in rat caused by ligation of coronary artery; assay: Echocardiography heart function, heart failure by ligation of coronary artery; format: in vivo, SD rat
[3] = Acute toxicity experiment, intravenous injection; format: in vivo
[4] = system: toxic myocarditis caused by Adriamycin in rat; assay: Serum troponin T (cTnT) level, Adriamycin rat model; format: in vivo, SD rat
[5] = system: heart failure in rat caused by ligation of coronary artery; assay: Capillary counting in myocardial fibrotic area (HE, image analysis); format: in vivo, SD rat
Text: After fixed with 10% formaldehyde, myocardium of the rat was longitudinally cut with equal distance into 3 slices, conventionally embedded with paraffin, section made, HE stained, image analysis for area of fibrotic region of the heart, counted the number of capillary in the fibrotic lesion (counting unit: piece/mm^2); Nagar-Oslen stained, studied the size of ischemic hypoxic region in the myocardium.

[6] = system: toxic myocarditis caused by Adriamycin in rat; assay: Serum troponin T (cTnT) level, Adriamycin rat model; format: in vivo, SD rat; conditions: Adriamycin model, (I)
Method: 2 ml of arterial blood was withdrawn, serum extracted, frozen and stored at −20° C., determination of serum cTnT content was performed with electrochemistry irradiate method submitted to be carried out by Clinical Laboratory of Zhong Shan Hospital.

[7] = 1 μg/kg group, prior to drug administration
[8] = 1 μg/kg iv daily 5 days, after drug administration
[9] = 3 μg/kg group, prior to drug administration
[10] = 3 μg/kg iv daily 5 days, after drug administration
[11] = 10 μg/kg group, prior to drug administration
[12] = 10 μg/kg iv daily 5 days, after drug administration

B1: rhNRG-1 β: Recombinant human neuregulin fragment of 61 amino acid (SEQ ID NO:4), 3 disulfide bonds, expressed in E. coli (protein, listed as Homo sapiens)
chain: SHLVKCAEKEKTFCVNGGECFMVKDLSNPSRYLCKCPNEFTGDRCQNYVMASFYKAEELYQ
modifications: disulfide (positions not given here)
CO ([1]; 1 μg/kg group, preoperation): 4.2 ± 0.6 L/min | EF ([1]; 1 μg/kg group, preoperation): 82.8 ± 3.0% | FS ([1]; 1 μg/kg group, preoperation): 50.8 ± 4.0% | CO [1, 7]: 2.4 ± 0.5 L/min | EF [1, 7]: 57.7±10.9% | FS [1, 7]: 30.6±8.0% | CO ([1]; 1 μg/kg group, prior to drug administration, listed as rhNRG-1β): 2.4 ± 0.5 L/min | CO [1, 8]: 3.7 ± 0.8 L/min | EF [1, 8]: 70.4±8.4% | FS [1, 8]: 39.7±5.7% | CO ([1]; 1 μg/kg iv daily 5 days, after drug administration, listed as rhNRG-1β): 3.7 ± 0.8 L/min | CO ([1]; 3 μg/kg group, preoperation): 4.3 ± 0.8 L/min | EF ([1]; 3 μg/kg group, preoperation): 84.7 ± 2.8% | FS ([1]; 3 μg/kg group, preoperation): 51.7 ± 2.9% | CO [1, 9]: 2.1 ± 0.7 L/min | EF [1, 9]: 58.0 ± 8.3% | FS [1, 9]: 29.9 ± 6.4% | CO [1, 10]: 4.0 ± 0.9 L/min | EF [1, 10]: 74.7 ± 4.6 % | FS [1, 10]: 42.4 ± 4.4 % | CO ([1]; 10 μg/kg group, preoperation): 4.3 ± 0.6 L/min | EF ([1]; 10 μg/kg group, preoperation): 82.9 ± 2.6% | FS ([1]; 10 μg/kg group, preoperation): 50.5 ± 3.3% | CO [1, 11]: 1.9 ± 0.3 L/min | EF [1, 11]: 55.8 ± 10.0% | FS [1, 11]: 27.7 ± 5.6% | CO [1, 12]: 3.6 ± 0.7 L/min | EF [1, 12]: 74.7 ± 3.2 % | FS [1, 12]: 41.5 ± 3.1 % | effect on heart rate ([1]; 1, 3 and 10 μg/kg iv daily 5 days): less effect on heart rate | EF value ([2]; 5 μg/kg, after ligation prior to drug administration, long-term monitoring): 53.1 ± 12.8% | time the changes of ejection fraction maintain after the drug administration ([2]; 20 μg/kg): about 35 days | EF value ([2]; 20 μg/kg, 5-day after drug administration and 35-day after drug withdrawal): 73.0 ± 20.3 % | MTD of acute toxicity experiment [3]: 35 mg/kg | cTnI ([4]; 10 μg/kg iv qd × 10 d, (II)): 8.342 ± 13.537 ng/mL | cTnI ([4]; 20 μg/kg iv qd × 10 d, (II)): 1.677 ± 0.589 ng/mL | cTnI ([4]; 40 μg/kg iv qd × 10, (II)): 0.874 ± 0.108 ng/mL | Capillary counting (I) ([5]; 5 μg/kg iv qd x 10): 9.35 ± 4.2 piece/mm^2 | Capillary counting (II) ([5]; 5 μg/kg iv qd x 10): 15.0 ± 6.9 piece/mm^2 | Capillary counting (I) ([5]; 10 μg/kg iv qd x 10): 8.99 ± 3.3 piece/mm^2 | Capillary counting (II) ([5]; 10 μg/kg iv qd x 10): 19.6 ± 8.5 piece/mm^2 | Capillary counting (I) ([5]; 20 μg/kg iv qd x 10): 10.12 ± 3.0 piece/mm^2 | Capillary counting (II) ([5]; 20 μg/kg iv qd x 10): 24.6 ± 9.5 piece/mm^2 | cTnT ([6]; 10 μg/kg iv qd × 10 d): 0.074 ± 0.024 ng/mL | cTnT ([6]; 10 μg/kg iv qd × 10 d, listed as rhNRG-1β): 0.074 ± 0.024 ng/mL | cTnT ([6]; 20 μg/kg iv qd × 10 d): 0.031 ± 0.006 ng/mL | cTnT ([6]; 20 μg/kg iv qd × 10 d, listed as rhNRG-1β): 0.031 ± 0.006 ng/mL | cTnT ([6]; 40 μg/kg iv qd × 10 d): 0.025 ± 0.011 ng/mL | cTnT ([6]; 40 μg/kg iv qd × 10 d, listed as rhNRG-1β): 0.025 ± 0.011 ng/mL
